From patent publication US20220025069A1
Read-outs that look alike come from different tables or passages of the source.

Experiments:
[1] = target: human 4-1BB (CD137), cell-surface-expressed on Jurkat-hu4-1BB-NFkB-luc2 reporter cell line (human) (UniProt Q07011); assay: cell-based or functional assay; set-up: AUC of activation curve, NFκB-luciferase in Jurkat-hu4-1BB-NFκB-luc2, crosslinking by WM-266-4 cells: unit not given beside the values
[2] = target: human 4-1BB (CD137), cell-surface-expressed on Jurkat-hu4-1BB-NFkB-luc2 reporter cell line (human) (UniProt Q07011); assay: cell-based or functional assay; set-up: unit not given beside the values
[3] = target: human HER2, cell-surface-expressed on KPL4 and NCI-N87 cells (human) (UniProt P04626); assay: flow cytometry, KPL4 cells, gMFI curve
[4] = target: human HER2, cell-surface-expressed on KPL4 and NCI-N87 cells (human) (UniProt P04626); assay: flow cytometry, NCI-N87 cells, gMFI curve
[5] = target: human Fibroblast Activation Protein (FAP), cell-surface-expressed on NIH/3T3-huFAP clone 19 cells (human) (UniProt Q12884); assay: flow cytometry, NIH/3T3-huFAP clone 19 cells, gMFI curve
[6] = target: human 4-1BB (CD137), cell-surface-expressed on Jurkat-hu4-1BB-NFkB-luc2 reporter cell line (human) (UniProt Q07011); assay: flow cytometry, Jurkat-hu4-1BB-NFkB-luc2 cells, gMFI curve
[7] = target: human 4-1BB (CD137), cell-surface-expressed on Jurkat-hu4-1BB-NFkB-luc2 reporter cell line (human) (UniProt Q07011); assay: as above; remark: listed apart in the source

Substance: DP47 huIgG1 PG LALA (antibody)
- AUC of activation curve, NFκB-luciferase in Jurkat-hu4-1BB-NFκB-luc2, crosslinking by NIH/3T3-huFAP clone 19 cells [1]: 195
- AUC of activation curve, NFκB-luciferase in Jurkat-hu4-1BB-NFκB-luc2, crosslinking by WM-266-4 cells [1]: 191
- AUC of activation curve, NFκB-luciferase in Jurkat-hu4-1BB-NFκB-luc2, crosslinking by KPL4 cells [2]: 253
- AUC of activation curve, NFκB-luciferase in Jurkat-hu4-1BB-NFκB-luc2, crosslinking by NCI-N87 cells [2]: 127
- AUC of activation curve, NFκB-luciferase in Jurkat-hu4-1BB-NFκB-luc2, crosslinking by SK-Br3 cells [2]: 129
- Area under the curve (AUC) of binding curve [3]: 177
- Area under the curve (AUC) of binding curve [4]: 1130
- Area under the curve (AUC) of binding curve [5]: 362
- Area under the curve (AUC) of binding curve [6]: 87
- Area under the curve (AUC) of binding curve [7]: 101
